Reference: patent US20240252628A1 (ACCELERON PHARMA, published 2024)

Columns and labels:
activin A = target: T1, activin A (UniProt P08476 311-426); assay: SPR (Biacore), anti-Fc capture of receptor, 37 C
T1 construct: The same holds for m2-m11
T1 sequence (looked up): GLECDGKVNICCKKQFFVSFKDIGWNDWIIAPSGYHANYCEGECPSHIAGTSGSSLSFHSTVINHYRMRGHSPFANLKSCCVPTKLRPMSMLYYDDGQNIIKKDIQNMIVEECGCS
Method: (§1) A Biacore™-based binding assay was used to compare the ligand binding kinetics of an ActRIIB-Fc:ActRIIB(L79E)-Fc heterodimer with those of unmodified ActRIIB-Fc homodimer. Fusion proteins were captured onto the system using an anti-Fc antibody. Ligands were then injected and allowed to flow over the captured receptor protein at 37° C. Results are summarized in the table below, in which ligand off-rates (kd) most indicative of effective ligand traps are denoted in bold.

BMP10 = target: T2, BMP10 (UniProt O95393 317-424); assay: SPR (Biacore), anti-Fc capture of receptor, 37 C
T2 sequence (looked up): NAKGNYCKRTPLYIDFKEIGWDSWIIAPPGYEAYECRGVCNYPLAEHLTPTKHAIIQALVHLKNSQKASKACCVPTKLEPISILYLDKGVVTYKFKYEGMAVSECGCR
Method: as §1

B1: ActRIIB-Fc:ActRIIB(L79E)-Fc heterodimer (Fc fusion)
chain 1: GRGEAETRECIYYNANWELERTNQSGLERCEGEQDKRLHCYASWRNSSGTIELVKKGCWEDDFNCYDRQECVATEENPQVYFCCCEGNFCNERFTHLPEAGGPEVTYEPPPTAPTGGGTHTCPPCPAPELLGGPSVFLFPPKPKDTLMISRTPEVTCVVVDVSHEDPEVKFNWYVDGVEVHNAKTKPREEQYNSTYRVVSVLTVLHQDWLNGKEYKCKVSNKALPAPIEKTISKAKGQPREPQVYTLPPSREEMTKNQVSLTCLVKGFYPSDIAVEWESNGQPENNYDTTPPVLDSDGSFFLYSDLTVDKSRWQQGNVFSCSVMHEALHNHYTQKSLSLSPG
chain 2: GRGEAETRECIYYNANWELERTNQSGLERCEGEQDKRLHCYASWRNSSGTIELVKKGCWLDDFNCYDRQECVATEENPQVYFCCCEGNFCNERFTHLPEAGGPEVTYEPPPTAPTGGGTHTCPPCPAPELLGGPSVFLFPPKPKDTLMISRTPEVTCVVVDVSHEDPEVKFNWYVDGVEVHNAKTKPREEQYNSTYRVVSVLTVLHQDWLNGKEYKCKVSNKALPAPIEKTISKAKGQPREPQVYTLPPSRKEMTKNQVSLTCLVKGFYPSDIAVEWESNGQPENNYKTTPPVLKSDGSFFLYSKLTVDKSRWQQGNVFSCSVMHEALHNHYTQKSLSLSPGK
notes: the receptor domains are the same in both; also called ActRIIB-Fc:ActRIIB(L79E)-Fc heteromer
fold faster off-rate than ActRIIB-Fc homodimer (activin A): ~10 fold
fold faster off-rate than ActRIIB-Fc homodimer (BMP10): ~10 fold
